Results reported in the supplement of paper PMC10065799, “High-throughput profiling of sequence recognition by tyrosine kinases and SH2 domains using bacterial peptide display” (eLife, 2023).

Experiments:
c-Src SH2 = assay: SH2 binding enrichment of the phosphorylated peptide, bacterial display (enrichment ratio); higher = better substrate or ligand; peptides without Tyr show the background
SHP2-C SH2 = assay: as above
Grb2 SH2 = Grb2 SH2 (UniProt P62993); assay: as above
Jak2 = Jak2 (UniProt O60674); assay: phosphorylation enrichment, bacterial display (enrichment ratio); higher = better substrate or ligand; peptides without Tyr show the background
c-Src = assay: as above
Fer (mouse) = assay: as above
AncSZ = assay: as above
Fes = Fes (UniProt P07332); assay: as above
FGFR1 = FGFR1 (UniProt P11362); assay: as above
FGFR3 = FGFR3 (UniProt P22607); assay: as above
c-Abl (mouse) = assay: as above
Fyn = Fyn (UniProt P06241); assay: as above
EPHB2 = EPHB2 (UniProt P29323); assay: as above
EPHB1 = EPHB1 (UniProt P54762); assay: as above
Hck = Hck (UniProt P08631); assay: as above
MERTK = MERTK (UniProt Q12866); assay: as above
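For SH2 binding enrichment of the phosphorylated peptide, bacterial display in this document: peptide library displayed on the E. coli surface as eCPX fusions, selected cells deep-sequenced, score is each peptide's frequency after selection divided by its frequency in the input.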
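For phosphorylation enrichment, bacterial display in this document: 11-residue human phosphosite peptides and single-mutation variants displayed on the E. coli surface, counted by deep sequencing, each peptide's frequency after selection divided by its frequency in the unselected input library; frequency after pTyr selection over input frequency; kinase dosed for 20-30% of maximal phosphorylation in three min.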

Chain of FGFR3 (P22607 whole entry, looked up): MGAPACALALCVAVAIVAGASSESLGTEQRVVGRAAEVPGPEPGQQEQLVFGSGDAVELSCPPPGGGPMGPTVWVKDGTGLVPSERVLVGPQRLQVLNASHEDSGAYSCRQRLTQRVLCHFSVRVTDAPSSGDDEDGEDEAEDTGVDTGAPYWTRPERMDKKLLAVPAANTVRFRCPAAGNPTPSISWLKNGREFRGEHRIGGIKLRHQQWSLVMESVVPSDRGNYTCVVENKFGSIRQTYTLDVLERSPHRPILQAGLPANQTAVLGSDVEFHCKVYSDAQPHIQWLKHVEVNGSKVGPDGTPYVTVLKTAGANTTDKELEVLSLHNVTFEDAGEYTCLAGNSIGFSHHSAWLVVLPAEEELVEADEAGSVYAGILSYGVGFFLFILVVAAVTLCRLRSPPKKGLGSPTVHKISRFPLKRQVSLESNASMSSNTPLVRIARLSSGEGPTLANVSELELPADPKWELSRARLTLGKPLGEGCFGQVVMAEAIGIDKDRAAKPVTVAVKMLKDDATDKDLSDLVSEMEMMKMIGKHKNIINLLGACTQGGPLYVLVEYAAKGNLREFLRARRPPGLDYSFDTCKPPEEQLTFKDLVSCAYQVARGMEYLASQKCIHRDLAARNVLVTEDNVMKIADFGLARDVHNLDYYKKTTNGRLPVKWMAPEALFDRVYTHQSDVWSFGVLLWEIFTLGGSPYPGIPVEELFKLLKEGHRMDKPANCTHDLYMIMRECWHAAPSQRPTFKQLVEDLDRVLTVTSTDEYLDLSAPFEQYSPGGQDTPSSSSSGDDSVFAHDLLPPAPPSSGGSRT
Chain of FGFR1 (P11362 whole entry, looked up): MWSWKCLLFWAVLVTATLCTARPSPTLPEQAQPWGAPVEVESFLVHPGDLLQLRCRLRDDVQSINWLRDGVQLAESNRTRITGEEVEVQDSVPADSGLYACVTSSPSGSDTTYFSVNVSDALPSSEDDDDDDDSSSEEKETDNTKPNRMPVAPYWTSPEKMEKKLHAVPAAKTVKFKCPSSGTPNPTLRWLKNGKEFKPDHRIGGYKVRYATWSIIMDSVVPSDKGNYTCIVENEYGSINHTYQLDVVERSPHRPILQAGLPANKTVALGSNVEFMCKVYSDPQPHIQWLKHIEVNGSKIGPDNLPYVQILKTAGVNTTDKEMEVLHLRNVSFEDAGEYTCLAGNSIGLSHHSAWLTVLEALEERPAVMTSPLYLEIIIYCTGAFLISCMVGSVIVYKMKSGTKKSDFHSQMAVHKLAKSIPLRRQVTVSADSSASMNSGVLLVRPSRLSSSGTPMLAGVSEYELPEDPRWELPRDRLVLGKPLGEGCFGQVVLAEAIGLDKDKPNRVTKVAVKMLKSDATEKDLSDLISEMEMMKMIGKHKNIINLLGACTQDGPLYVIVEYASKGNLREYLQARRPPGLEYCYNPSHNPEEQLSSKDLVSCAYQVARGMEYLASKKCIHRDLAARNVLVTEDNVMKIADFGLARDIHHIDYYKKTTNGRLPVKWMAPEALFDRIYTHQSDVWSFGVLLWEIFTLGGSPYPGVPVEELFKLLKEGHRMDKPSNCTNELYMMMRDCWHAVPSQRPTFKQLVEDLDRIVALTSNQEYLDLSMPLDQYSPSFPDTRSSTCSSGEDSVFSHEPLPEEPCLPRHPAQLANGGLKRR
Chain of Fyn (P06241 whole entry, looked up): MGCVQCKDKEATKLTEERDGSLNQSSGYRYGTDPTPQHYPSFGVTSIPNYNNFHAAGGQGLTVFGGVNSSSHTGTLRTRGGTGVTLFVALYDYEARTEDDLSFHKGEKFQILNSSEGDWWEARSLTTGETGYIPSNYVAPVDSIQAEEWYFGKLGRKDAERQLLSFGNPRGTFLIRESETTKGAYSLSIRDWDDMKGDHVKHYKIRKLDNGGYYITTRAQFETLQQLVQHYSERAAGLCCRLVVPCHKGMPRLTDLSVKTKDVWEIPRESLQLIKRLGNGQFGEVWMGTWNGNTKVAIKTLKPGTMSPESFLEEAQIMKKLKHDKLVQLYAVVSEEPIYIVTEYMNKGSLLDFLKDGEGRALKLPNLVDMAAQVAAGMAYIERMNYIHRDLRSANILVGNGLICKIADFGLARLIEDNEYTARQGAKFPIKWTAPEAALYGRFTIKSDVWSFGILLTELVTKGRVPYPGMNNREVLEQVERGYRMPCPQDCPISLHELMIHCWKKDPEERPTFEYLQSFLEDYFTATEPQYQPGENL
Chain of Jak2 (O60674 whole entry, looked up): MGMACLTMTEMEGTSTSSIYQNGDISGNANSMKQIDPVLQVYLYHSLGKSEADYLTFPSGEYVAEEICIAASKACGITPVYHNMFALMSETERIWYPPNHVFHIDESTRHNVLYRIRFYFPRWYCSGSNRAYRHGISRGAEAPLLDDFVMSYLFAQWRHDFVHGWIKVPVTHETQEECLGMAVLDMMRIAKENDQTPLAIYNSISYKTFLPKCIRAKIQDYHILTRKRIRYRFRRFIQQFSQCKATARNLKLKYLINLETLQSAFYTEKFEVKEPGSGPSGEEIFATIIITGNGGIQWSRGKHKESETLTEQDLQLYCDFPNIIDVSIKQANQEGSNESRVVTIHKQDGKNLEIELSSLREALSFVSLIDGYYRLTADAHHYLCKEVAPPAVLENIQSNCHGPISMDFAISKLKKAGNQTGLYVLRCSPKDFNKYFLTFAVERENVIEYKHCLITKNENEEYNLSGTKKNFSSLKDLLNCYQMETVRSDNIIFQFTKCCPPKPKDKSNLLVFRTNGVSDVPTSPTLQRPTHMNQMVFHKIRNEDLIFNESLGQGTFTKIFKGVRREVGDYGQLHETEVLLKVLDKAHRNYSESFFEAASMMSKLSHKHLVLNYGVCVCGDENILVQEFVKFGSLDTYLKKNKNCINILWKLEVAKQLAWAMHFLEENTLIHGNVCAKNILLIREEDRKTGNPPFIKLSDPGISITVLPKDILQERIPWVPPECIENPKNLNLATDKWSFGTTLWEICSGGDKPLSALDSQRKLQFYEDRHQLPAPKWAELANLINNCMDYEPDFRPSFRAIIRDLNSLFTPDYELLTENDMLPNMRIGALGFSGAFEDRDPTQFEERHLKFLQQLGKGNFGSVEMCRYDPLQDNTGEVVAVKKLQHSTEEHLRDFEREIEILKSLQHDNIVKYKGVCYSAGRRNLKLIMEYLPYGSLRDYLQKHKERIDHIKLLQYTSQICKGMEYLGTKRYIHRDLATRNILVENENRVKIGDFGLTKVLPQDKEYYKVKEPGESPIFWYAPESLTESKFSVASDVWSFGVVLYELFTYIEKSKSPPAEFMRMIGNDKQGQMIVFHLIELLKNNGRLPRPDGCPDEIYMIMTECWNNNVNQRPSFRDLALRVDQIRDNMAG
Chain of EPHB2 (P29323 whole entry, looked up): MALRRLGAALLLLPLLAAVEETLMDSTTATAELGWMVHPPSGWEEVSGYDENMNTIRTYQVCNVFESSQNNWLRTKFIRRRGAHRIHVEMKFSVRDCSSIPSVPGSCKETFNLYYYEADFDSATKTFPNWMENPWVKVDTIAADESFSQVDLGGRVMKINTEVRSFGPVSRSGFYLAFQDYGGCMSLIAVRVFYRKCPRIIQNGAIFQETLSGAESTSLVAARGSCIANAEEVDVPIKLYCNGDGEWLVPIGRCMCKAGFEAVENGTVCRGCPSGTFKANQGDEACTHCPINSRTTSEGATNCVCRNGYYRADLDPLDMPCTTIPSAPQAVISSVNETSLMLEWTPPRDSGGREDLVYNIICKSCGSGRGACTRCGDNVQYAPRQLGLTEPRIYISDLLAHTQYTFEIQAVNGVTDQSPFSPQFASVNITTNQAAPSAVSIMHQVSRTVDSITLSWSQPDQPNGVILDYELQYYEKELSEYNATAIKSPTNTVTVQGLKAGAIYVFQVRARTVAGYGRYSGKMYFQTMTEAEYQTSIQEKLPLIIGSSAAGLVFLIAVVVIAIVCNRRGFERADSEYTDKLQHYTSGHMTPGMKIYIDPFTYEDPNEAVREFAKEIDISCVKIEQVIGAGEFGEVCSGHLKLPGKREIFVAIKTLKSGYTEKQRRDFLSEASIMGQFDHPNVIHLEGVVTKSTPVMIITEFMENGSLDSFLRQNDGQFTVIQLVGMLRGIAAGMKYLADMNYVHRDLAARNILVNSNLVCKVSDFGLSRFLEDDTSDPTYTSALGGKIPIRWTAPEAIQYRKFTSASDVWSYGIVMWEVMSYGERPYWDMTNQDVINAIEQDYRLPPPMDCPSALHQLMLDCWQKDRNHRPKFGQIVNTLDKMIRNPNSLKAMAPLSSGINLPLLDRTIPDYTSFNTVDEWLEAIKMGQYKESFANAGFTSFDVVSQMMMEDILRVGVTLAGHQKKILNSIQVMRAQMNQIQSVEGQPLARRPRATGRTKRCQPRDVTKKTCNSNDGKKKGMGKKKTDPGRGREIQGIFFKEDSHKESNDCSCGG
Chain of Hck (P08631 whole entry, looked up): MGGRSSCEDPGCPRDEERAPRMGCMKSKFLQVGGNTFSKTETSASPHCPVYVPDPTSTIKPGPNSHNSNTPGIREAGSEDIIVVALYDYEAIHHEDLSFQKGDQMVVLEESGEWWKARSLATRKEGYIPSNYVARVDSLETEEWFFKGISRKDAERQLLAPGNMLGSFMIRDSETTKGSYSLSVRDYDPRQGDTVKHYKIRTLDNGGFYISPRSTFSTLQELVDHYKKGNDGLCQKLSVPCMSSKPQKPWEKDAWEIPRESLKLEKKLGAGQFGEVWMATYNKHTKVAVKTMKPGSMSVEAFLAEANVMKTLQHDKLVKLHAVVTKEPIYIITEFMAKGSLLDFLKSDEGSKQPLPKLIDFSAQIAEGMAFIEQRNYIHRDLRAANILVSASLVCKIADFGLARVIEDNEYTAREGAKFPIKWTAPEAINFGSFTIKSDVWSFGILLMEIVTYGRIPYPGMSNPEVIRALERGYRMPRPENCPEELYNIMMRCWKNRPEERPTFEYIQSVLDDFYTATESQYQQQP

Sequence	SH2 binding enrichment (c-Src SH2)	SH2 binding enrichment (SHP2-C SH2)	SH2 binding enrichment (Grb2 SH2)	phosphorylation enrichment (Jak2)	phosphorylation enrichment (c-Src)	phosphorylation enrichment (Fer (mouse))	phosphorylation enrichment (AncSZ)	phosphorylation enrichment (Fes)	phosphorylation enrichment (FGFR1)	phosphorylation enrichment (FGFR3)	phosphorylation enrichment (c-Abl (mouse))	phosphorylation enrichment (Fyn)	phosphorylation enrichment (EPHB2)	phosphorylation enrichment (EPHB1)	phosphorylation enrichment (Hck)	phosphorylation enrichment (MERTK)
SVSNNYIQTLG [CTNND1_Y174]	0.638	0.803	0.846	0.508	0.445	0.451	0.606	0.658	0.476	0.585	0.637	0.432	0.426	0.491	0.417	0.621
TCRPPYFHRNC [HGD_Y333_F329C_YF]	1	0.9	1.45	0.914	0.314	0.334	1.05	1.06	0.255	0.568	0.878	0.4	0.686	0.215	0.548	0.758
TDLAFYLVRKG [ASL_Y376_YF]	0.693	0.662	1.07	0.946	0.361	0.541	1.4	1.27	0.497	0.988	0.611	0.545	0.725	0.65	0.67	0.506
TEAEPYYRSLR [NPHS1_Y1138]	0.707	0.864	0.961	0.809	0.512	0.425	0.7	0.824	0.458	0.609	0.722	0.373	0.425	0.422	0.503	0.371
TESNNYIFKTL [FAM83B_Y637_YF]	0.492	1.2	0.879	0.926	0.642	0.597	1.26	1.12	0.645	0.82	0.762	0.528	1.06	0.604	0.643	0.664
TFEYRYLEDQD [CNOT3_Y746_R750Q]	0.66	0.478	0.772	0.916	0.54	0.518	1.22	1.15	0.77	0.823	0.673	0.438	0.553	0.566	0.637	0.44
TFSPPYYHRNC [HGD_Y333_R330S]	0.703	0.859	1.06	0.83	0.535	0.497	0.822	0.813	0.565	0.654	0.612	0.5	0.52	0.45	0.531	0.526
TIQRMYGCDVG [HLA-A_Y123_I121R]	0.479	0.968	0.636	0.789	0.594	0.46	0.761	1.05	0.56	0.598	0.775	0.442	0.57	0.504	0.45	0.448
TIQSMYGCDVG [HLA-B_Y123_L119I]	0.581	1.01	0.909	0.794	0.517	0.48	0.886	1.04	0.579	0.602	0.68	0.427	0.48	0.502	0.502	0.559
TMKSHYMELYD [BBS2_Y644_R643H]	10.3	1.84	1.22	0.864	1.2	0.453	0.807	1.01	0.568	0.64	0.693	0.69	0.683	0.971	0.953	1.34
TMKSRYMELFD [BBS2_Y644_YF]	4.89	0.634	0.945	0.71	0.418	0.382	0.765	0.914	0.482	0.667	0.613	0.447	0.437	0.523	0.48	0.42
TQKLAYMELQQ [CENPF_Y700]	0.931	1.17	0.934	0.794	0.509	0.513	0.776	0.907	0.596	0.629	0.94	0.455	0.454	0.482	0.52	0.527
TRSFDYTEGGD [FGF7_Y58_M59T_YF]	0.513	0.494	0.87	0.975	0.431	0.572	1.23	1.19	0.52	0.625	0.659	0.513	0.519	0.569	0.501	0.503
TRVMEYISRLD [CLTCL1_Y1043]	0.655	0.931	1.03	0.637	0.358	0.353	0.762	0.694	0.344	0.44	0.565	0.381	0.449	0.35	0.511	0.325
TSESSYFKSLN [NGEF_Y288_A286S_YF]	0.437	0.553	0.776	0.67	0.411	0.436	0.766	0.91	0.41	0.705	0.636	0.395	0.37	0.433	0.455	0.362

More lines, main results first:

SH2 binding enrichment (c-Src SH2)	SH2 binding enrichment (SHP2-C SH2)	SH2 binding enrichment (Grb2 SH2)	Sequence	phosphorylation enrichment (Jak2)	phosphorylation enrichment (c-Src)	phosphorylation enrichment (Fer (mouse))	phosphorylation enrichment (AncSZ)	phosphorylation enrichment (Fes)	phosphorylation enrichment (FGFR1)	phosphorylation enrichment (FGFR3)	phosphorylation enrichment (c-Abl (mouse))	phosphorylation enrichment (Fyn)	phosphorylation enrichment (EPHB2)	phosphorylation enrichment (EPHB1)	phosphorylation enrichment (Hck)	phosphorylation enrichment (MERTK)
1.28	0.712	0.731	SVIVPYEPPEV [TP53_Y220_V217I]	1.08	0.445	0.631	1.1	1.23	0.6	0.81	0.831	0.654	0.618	0.622	0.517	0.447
1.14	0.859	0.892	SVLVPYEPPEV [TP53_Y220_V217L]	1.32	0.541	0.63	1.36	1.33	0.505	0.899	0.874	0.555	0.757	0.651	0.651	0.463
0.402	0.532	0.617	SVTCTYSPALH [TP53_Y126_N131H]	1.23	0.741	0.492	1.28	1.41	0.487	0.724	0.808	0.545	0.62	0.71	0.556	0.413
0.371	0.613	0.793	SVTCTYSPARN [TP53_Y126_L130R]	1.06	0.555	0.554	1.22	1.37	0.53	0.756	0.84	0.489	0.654	0.576	0.56	0.449
0.444	0.469	0.723	SVTCTYSPGLN [TP53_Y126_A129G]	1.46	0.612	0.609	1.42	1.57	0.511	0.998	1.05	0.525	0.686	0.761	0.595	0.454
1.78	0.614	0.765	SVVVPYELPEV [TP53_Y220_P222L]	1.09	0.545	0.581	1.65	1.29	0.553	0.723	0.848	0.503	0.659	0.643	0.58	0.47
0.419	0.608	0.717	SYCYRYRCAAR [SUMF1_Y344]	0.728	0.54	0.37	0.789	0.651	0.538	0.448	0.776	0.484	0.512	0.309	0.386	0.549
0.495	0.794	0.782	SYSGEYGSGGG [ZG16_Y30_G32S]	0.727	0.545	0.462	0.763	0.696	0.419	0.512	0.596	0.417	0.429	0.454	0.534	0.53
0.786	0.838	1.07	TACNPYKPPGP	0.521	0.46	0.449	0.605	0.717	0.354	0.437	1.14	0.469	0.417	0.733	0.384	0.393
0.786	0.761	1.07	TDEYEYDELIV [TGM1_Y136]	0.785	0.454	0.526	1.3	1.2	0.664	0.805	0.705	0.57	0.566	0.588	0.775	0.436
0.405	0.8	0.577	TDVSLYPSGGT [TENM4_Y399]	0.578	0.269	0.535	0.676	0.552	0.355	0.428	0.585	0.353	0.512	0.331	0.409	0.435
0.466	0.538	0.924	TEAGNYKLCFD [TMED1_Y103_D102N]	1.17	0.424	0.492	1.12	1.05	0.627	0.749	0.785	0.505	0.577	0.53	0.549	0.453
0.594	0.851	1.05	TLKDVCDDGKY [RPS6KA3_Y483_Y483C]	0.841	0.507	0.456	0.93	1.2	0.53	0.594	0.664	0.434	0.624	0.569	0.622	0.437
0.619	0.842	0.997	TNLVPYPRIHF [TUBA1A_Y262]	0.624	0.392	0.449	0.501	0.655	0.445	0.471	0.781	0.378	0.422	1.18	0.369	0.413
